US20200338203A1 (Bicycle, published 2020)
Numbered stars: 1 amine (or outer) side, 2 acyl side, 3 side chain; on linkers, the order of the positions; unused ones are H or OH. Bridge positions count the residues as written; N and C are the ends. Square brackets hold non-standard residues; d marks the D form. Ends that are not written are not given here. ThiAz = 3-(1,2,4-triazol-1-yl)-alanine, O=C([C@H](Cn1cncn1)N[*:1])[*:2]; Ala(2-furyl) = N[C@@H](Cc1ccco1)C(=O)O; 1Nal = N[C@@H](Cc1cccc2ccccc12)C(=O)O; TBMB = c1c(C[*:1])cc(C[*:3])cc1C[*:2]; hArg = N=C(N)NCCCC[C@H](N)C(=O)O; Tle = CC(C)(C)[C@H](N)C(=O)O; Pip = O=C(O)[C@@H]1CCCCN1; Aze = O=C(O)[C@@H]1CCN1; Aib = CC(C)(N)C(=O)O; βAla = NCCC(=O)O; Sar = CNCC(=O)O

Biological target: T1, Human EphA2 (Ecto) (Human, UniProt P29317 24-537)
T1 construct: extracellular domain
T1 sequence (P29317 24-537): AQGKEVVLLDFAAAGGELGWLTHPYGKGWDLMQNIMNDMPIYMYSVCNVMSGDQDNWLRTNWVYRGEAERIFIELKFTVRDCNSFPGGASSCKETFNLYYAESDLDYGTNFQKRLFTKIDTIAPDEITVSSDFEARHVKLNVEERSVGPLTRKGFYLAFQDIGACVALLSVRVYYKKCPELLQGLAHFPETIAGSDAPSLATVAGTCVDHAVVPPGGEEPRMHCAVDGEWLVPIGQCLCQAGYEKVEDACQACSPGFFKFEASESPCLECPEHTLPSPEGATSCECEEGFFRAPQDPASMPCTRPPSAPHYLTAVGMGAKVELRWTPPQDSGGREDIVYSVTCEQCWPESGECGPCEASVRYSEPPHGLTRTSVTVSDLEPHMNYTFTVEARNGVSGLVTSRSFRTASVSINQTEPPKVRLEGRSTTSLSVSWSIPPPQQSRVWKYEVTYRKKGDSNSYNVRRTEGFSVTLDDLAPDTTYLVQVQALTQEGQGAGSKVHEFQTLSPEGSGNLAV
Assay: FP competition; competitor Compound 18
Method: Peptides without a fluorescent tag were tested in competition with a peptide with a fluorescent tag and a known Kd (Table 2). Peptides were diluted to an appropriate concentration in assay buffer as described in the direct binding assay with a maximum of 5% DMSO, then serially diluted 1 in 2. Five μL of diluted peptide was added to the plate followed by 10 μL of human or mouse EphA2 (Table 1) at a fixed concentration which was dependent on the fluorescent peptide used (Table 2), then 10 μL fluorescent peptide added. Measurements were conducted as for the direct binding assay, however the gain was determined prior to the first measurement.

Binder: Ac-[Sar][Sar]A[dD]VTCPWG[Aib]F[1Nal]CPVNR[Aib]GC (linker 7-14-21 via TBMB) [Compound 179]
- Ki: 2.94 nM

Binder: AHDVPCP[1Nal]G[Aib]FWCP[Tle]N[hArg]PGC (linker 6-13-20 via TBMB) [Compound 191]
- Ki: 3.1 nM

Binder: [Sar][Sar]AH[dD]VPCPWGPFWCPVNRPGC (linker 8-15-22 via TBMB) [Compound 209]
- Ki: 1.25 nM

Binder: AHDVPCP[1Nal]GPFWCPVNRPGC (linker 6-13-20 via TBMB) [Compound 188]
- Ki: 1.45 nM

Binder: Ac-[Sar][Sar]A[dD]VTCPWGPFWCPVNR[Aib][dD]C (linker 7-14-21 via TBMB) [Compound 177]
- Ki: 4.43 nM

Binder: [Sar][Sar]AHD[Tle]PCPWGPFWCPVNRPGC (linker 8-15-22 via TBMB) [Compound 217]
- Ki: 0.49 nM

Binder: Ac-[Sar][Sar][dA]HDVPCPWGPFWCPVNRPGC (linker 8-15-22 via TBMB) [Compound 194]
- Ki: 1.2 nM

Binder: Ac-[Sar][Sar]A[dH]DVPCPWGPFWCPVNRPGC (linker 8-15-22 via TBMB) [Compound 196]
- Ki: 0.95 nM

Binder: Ac-[Sar][Sar]A[dD]DVTCPWGPFWCPVNRPGC (linker 8-15-22 via TBMB) [Compound 281]
- Ki: 5.78 nM

Binder: Ac-[Sar][Sar]A[dD]VTCPWG[Aib]FWCP[Tle]NR[Aib]GC (linker 7-14-21 via TBMB) [Compound 180]
- Ki: 3.83 nM

Binder: Ac-[Sar][Sar]A[dD]VTCP[1Nal]G[Aib]FWCPVNR[Aib]GC (linker 7-14-21 via TBMB) [Compound 178]
- Ki: 2.4 nM

Binder: Ac-[Sar][Sar]A[dD]VTCP[1Nal]GPFWCPVNRPGC (linker 7-14-21 via TBMB) [Compound 170]
- Ki: 0.6 nM

Binder: AHDVPCPWGPF[1Nal]CPVNRPGC (linker 6-13-20 via TBMB) [Compound 189]
- Ki: 1.3 nM

Binder: Ac-[Sar][Sar]A[dD]VTCPWGP[hArg]WCPVNRPGC (linker 7-14-21 via TBMB) [Compound 171]
- Ki: 4.88 nM

Binder: Ac-[Sar][Sar]A[dD]VTCPWGPFWCPVN[hArg]P[dD]C (linker 7-14-21 via TBMB) [Compound 176]
- Ki: 4.89 nM

Binder: [Sar][Sar]AHD[Aib]PCPWGPFWCPVNRPGC (linker 8-15-22 via TBMB) [Compound 216]
- Ki: 2.77 nM

Binder: [Sar][Sar]A[dH]DVPCPWGPFWCPVNRPGC (linker 8-15-22 via TBMB) [Compound 197]
- Ki: 1.2 nM

Binder: Ac-[Sar][Sar]AH[dD][Tle]PCPWGPFWCPVNRPGC (linker 8-15-22 via TBMB) [Compound 211]
- Ki: 3.1 nM

Binder: Ac-[Sar][Sar]AHDVPCPWGPFWCPVNRPGC (linker 8-15-22 via TBMB) [Compound 193]
- Ki: 0.59 nM

Binder: [Sar][Sar]AHEVPCPWGPFWCPVNRPGC (linker 8-15-22 via TBMB) [Compound 207]
- Ki: 1.3 nM

Binder: Ac-[Sar][Sar]AADVPCPWGPFWCPVNRPGC (linker 8-15-22 via TBMB) [Compound 195]
- Ki: 1.01 nM

Binder: [Sar][Sar]AHDAPCPWGPFWCPVNRPGC (linker 8-15-22 via TBMB) [Compound 214]
- Ki: 22.5 nM

Binder: [Sar][Sar]AHDVACPWGPFWCPVNRPGC (linker 8-15-22 via TBMB) [Compound 218]
- Ki: 1.27 nM

Binder: [Sar][Sar]AHAVPCPWGPFWCPVNRPGC (linker 8-15-22 via TBMB) [Compound 205]
- Ki: 1.8 nM

Binder: Ac-[Sar][Sar]A[dD]DVPCPWGPFWCPVNRPGC (linker 8-15-22 via TBMB) [Compound 200]
- Ki: 4.1 nM

Binder: [Sar][Sar]AHD[dA]PCPWGPFWCPVNRPGC (linker 8-15-22 via TBMB) [Compound 215]
- Ki: 26 nM

Binder: [Sar][Sar]A[dA]DVPCPWGPFWCPVNRPGC (linker 8-15-22 via TBMB) [Compound 199]
- Ki: 3.35 nM

Binder: AHDVPCP[1Nal]G[Aib]FWCP[Tle]NR[Aib]GC (linker 6-13-20 via TBMB) [Compound 192]
- Ki: 1.75 nM

Binder: [dD]VTCPWGPFWCPVNRPGC (linker 4-11-18 via TBMB) [Compound 185]
- Ki: 2.17 nM

Binder: [Sar][Sar]AH[dE]VPCPWGPFWCPVNRPGC (linker 8-15-22 via TBMB) [Compound 208]
- Ki: 2 nM

Binder: [Sar][Sar]AHDV[Pip]CPWGPFWCPVNRPGC (linker 8-15-22 via TBMB) [Compound 222]
- Ki: 3.4 nM

Binder: [Sar][Sar]AH[dA]VPCPWGPFWCPVNRPGC (linker 8-15-22 via TBMB) [Compound 206]
- Ki: 8.3 nM

Binder: Ac-[Sar][Sar]A[dD]VTCP[1Nal]G[Aib]F[1Nal]CPVNR[Aib]GC (linker 7-14-21 via TBMB) [Compound 181]
- Ki: 1.37 nM

Binder: Ac-[Sar][Sar]A[dH]DVCPWGPFWCPVNRPGC (linker 7-14-21 via TBMB) [Compound 198]
- Ki: 20 nM

Binder: Ac-[Sar][Sar]A[dD]VTCPWGPFWCPVNRP[dD]C (linker 7-14-21 via TBMB) [Compound 175]
- Ki: 1.78 nM

Binder: AHDVPCP[1Nal]GPFWCP[Tle]NRPGC (linker 6-13-20 via TBMB) [Compound 190]
- Ki: 0.7 nM

Binder: Ac-[Sar][Sar]AH[dD]V[Sar]CPWGPFWCPVNRPGC (linker 8-15-22 via TBMB) [Compound 212]
- Ki: 4.95 nM

Binder: [βAla][Sar][Sar][Sar][Sar][Sar][Sar][Sar][Sar][Sar][Sar]HDVPCPWGPFWCPVNRPGC (linker 16-23-30 via TBMB) [Compound 223]
- Ki: 1.29 nM

Binder: Ac-[Sar][Sar]A[dH]D[Tle]PCPWGPFWCPVNRPGC (linker 8-15-22 via TBMB) [Compound 204]
- Ki: 2.15 nM

Binder: Ac-[Sar][Sar]AH[dD]V[Aib]CPWGPFWCPVNRPGC (linker 8-15-22 via TBMB) [Compound 213]
- Ki: 1.9 nM

Binder: AHDVPCP[1Nal]GPFWCPVNRPGCA (linker 6-13-20 via TBMB) [Compound 187]
- Ki: 0.32 nM

Binder: Ac-[Sar][Sar][dH]DVPCPWGPFWCPVNRPGC (linker 7-14-21 via TBMB) [Compound 224]
- Ki: 1.09 nM

Binder: [Sar][Sar]A[Ala(2-furyl)]DVPCPWGPFWCPVNRPGC (linker 8-15-22 via TBMB) [Compound 203]
- Ki: 0.49 nM

Binder: [Sar][Sar]AHDV[Aze]CPWGPFWCPVNRPGC (linker 8-15-22 via TBMB) [Compound 221]
- Ki: 3.1 nM

Binder: [Sar][Sar]A[ThiAz]DVPCPWGPFWCPVNRPGC (linker 8-15-22 via TBMB) [Compound 202]
- Ki: 0.7 nM

Binder: [Sar][Sar]AHDV[Aib]CPWGPFWCPVNRPGC (linker 8-15-22 via TBMB) [Compound 220]
- Ki: 0.83 nM

Binder: Ac-[Sar][Sar]AH[dD]VPCPWGPFWCPVNRPGC (linker 8-15-22 via TBMB) [Compound 210]
- Ki: 1.1 nM

Binder: [Sar][Sar]AHDV[dA]CPWGPFWCPVNRPGC (linker 8-15-22 via TBMB) [Compound 219]
- Ki: 15 nM
